Ratio to parent data for two substances are collected here from article PMC9242648.

Experiment [1] has as its target human essential light chain (MYL3) (UniProt P08590). As to the kind of experiment: Coomassie SDS-PAGE gel-based light chain loading assay. The conditions noted are these: read off a plot.
The target in experiment [2] is human regulatory light chain (MYL2) (UniProt P10916). The description is as above. The conditions noted are these: read off a plot.

For “human β-cardiac myosin 2-hep heavy chain, wild type D778V”, the figures for the ratio to parent in experiment [1] and in experiment [2] were 1.1 and 1.3, respectively.
As to “human β-cardiac myosin 2-hep heavy chain, wild type L781P”, the ratio to parent was 0.99 in experiment [1] and 1.2 in experiment [2].
